Measured values as given in patent US5965697, “Disaggregated mutant human RANTES” (British Biotech Pharmaceuticals Limited, dated 1999).
Changes are numbered by the printed parent chain. Values joined by “and” are separate entries in the source; they are usually repeats but may differ in a detail not shown here. Identical values can stand only once.

Experiments:
[1] = target: wild-type human RANTES (hRANTES) (human); experiment: sedimentation equilibrium AUC in PBS, 0.1 mg/ml; self-association (monomer 7850 Da)
[2] = target: T-cell receptor complex (tyrosine kinase pathway) on CD3+ Jurkat cells and cultured human T lymphocytes (human); conditions: scale: % of cells expressing the cell surface marker
[3] = target: cell-surface proteoglycans; experiment: radioligand binding, 0.125 nM 125I-hRANTES on CHO cells, filter harvest
[4] = target: the molecule itself; experiment: sedimentation equilibrium AUC in PBS, 0.5 mg/ml; self-association
Method: Mutagenesis of pERM1 was performed according to the method of Kunkel et al., (Methods in Enzymology, 154: 367–382; 1987). The oligonucleotides BB-35875 (SEQ ID NO. 14; 5'-[…] […] GTGG-3') and BB-37015 (SEQ ID No. 15; 5'-[…] ACATTGA-CAA […]-3') were used to construct the hRANTES Glu26>Ala and Glu66>Ser variant genes respectively. A combination of both BB-35875 and BB-37015 was used to […]. The samples were spun at 15,000 r.p.m., 25° C. for 18 hours to reach equilibrium. Final solute distributions were recorded at 235 nm, 280 nm and 295 nm as a function of radius. The scan was repeated after a further three hours of centrifugation to confirm that equilibrium had been achieved. The final solute distribution ASCII data were captured and the Microcal Origin software for the Beckman XLA analytical ultracentrifuge was used to fit the data to a model assuming a single ideal species (Ideal1) to provide an estimate of the weight average molecular weight.

[5] = target: G-protein coupled receptors (GPCRs) through which hRANTES acts
[6] = target: cell-surface proteoglycans; experiment: radioligand binding, 0.2 nM 125I-hRANTES E66>S on CHO cells, filter harvest
[7] = target: T-cell receptor complex (tyrosine kinase pathway) on CD3+ Jurkat cells and cultured human T lymphocytes (human)

**Q.** Which Average molecular weight by AUC (Da) [1] does the source give for “wild-type human RANTES (hRANTES) (ligand)” here?
**A.** > 160000 Da

B1: wild-type human RANTES (hRANTES) (ligand)
chain: SPYSSDTTPCCFAYIARPLPRAHIKEYFYTSGKCSNPAVVFVTRKNRQVCANPEKKWVREYINSLEMS
**Q.** With B1 as the molecule, how does the % of cells expressing the cell surface marker (CD69, CD11b, CD11c) on cultured human T lymphocytes, 5 µM [2] read?
**A.** 99.1

**Q.** What about the total counts bound [3] of the same molecule?
**A.** 5730 cpm

B2: hRANTES E26>A E66>S (ligand)
chain: B1 chain with E26A, E66S
**Q.** For B2, which “Average molecular weight by AUC (Da)” value [4] is on record?
**A.** 15000 Da

B3: hRANTES E26>A (ligand)
chain: B1 chain with E26A
**Q.** With B3 as the molecule, how does the IC50 of p24 antigen production by PBMC infected with HIV-1 RR [5] read?
**A.** 28 nM and 0.22 µg/ml

**Q.** And the “Average molecular weight by AUC (Da)” value [4]?
**A.** 33000 Da

B4: hRANTES E66>S (ligand)
chain: B1 chain with E66S
**Q.** What does the source list for B4?
**A.** % of cells expressing the cell surface marker (CD69, CD11b, CD11c) on cultured human T lymphocytes, 5 µM [2]: 0.39; Average molecular weight by AUC (Da) [4]: 14000 Da; total counts bound [6]: 18300 cpm; calcium mobilisation in CD3+ Jurkat cells [7]: 200 fold
